Measurements: article PMC5206705 (Scientific Reports, 2017)

Target: the molecule itself
Test: SEC; preparative Superdex 200 in 50 mM Tris pH 8.0, 125 mM sodium chloride; elution at approximately 80 kDa against a 44 kDa monomer

B1: β-ketoacyl-acyl carrier protein synthase FabF from Listeria monocytogenes (enzyme, UniProt A0A0B8RFI6 1-413, looked up)
chain: MDKRRVVVTGIGAVTPIGNDAETSWENAKKGVNGVAKMTRLNPDDFPVKIAAELKDFDVEKYLEKKEARKMDRFTHYAIASAEMAVQDSGLVIDDSNANRVGVWIGSGIGGMETFETQYEIFLNRGHRRVSPFFVPMMIPDMGSGQVSIRFGAKGINSTTVTACATATNSIGDAFKVIERGDADAMITGGAEAPITKMSLAGFTANKALSLNPDPETACRPFDKDRDGFIIGEGAGIVILEEYEHAKARGAKIYAEIVGYGATGDAYHITAPAPNGEGAARAMKMAIDDAGLTPDKVDYINAHGTSTPYNDEYETQAIKTVFGDHAKKLAISSTKSMTGHTLGASGGIEAIFALLTIRDNIIAPTIHLKNQDEVCDLDYVPNEAREANVNVVISNSFGFGGHNATLVFKRIED
notes: FabF (β-ketoacyl-ACP synthase II) of Listeria monocytogenes, amplified from genomic DNA ATCC 19115D-5 with primers from the start to the stop codon; the construct encoded the full length protein; monomer about 44 kDa; Vector pMCSG21 with a TEV site; a few residues of the site may remain at the N-terminus after cleavage (surmise); also called LmFabF; β-ketoacyl-ACP synthase II; source: E. coli …
- stoichiometry N: 2
